Our source for the fold increase in affinity against the AC10 wild-type variant values is patent US20150218551A1.

The experiment has as its target LR1-C1 envelope protein (Env variant of HIV-1 AC10) on virions (HIV-1). In words: virion capture assay: virions titrated on plates coated with 4E10, bound virus measured by p24 ELISA; reference AC10 wild-type virions. A general note: ELISA stands for enzyme-linked immunosorbent assay.

Substance 4E10 antibody displayed a fold increase in affinity against the AC10 wild-type variant of 4 fold.
